Assays:
Assay in all cases: ELISA, NKG2D-Fc coated
[1] = biological target: T1, recombinant human NKG2D-Fc (human, UniProt P26718 73-216)
T1 construct: extracellular domain; also called human NKG2D-Fc fusion protein; NKG2D-Fc-biotin; not shown: human IgG1 Fc domain
T1 sequence (looked up): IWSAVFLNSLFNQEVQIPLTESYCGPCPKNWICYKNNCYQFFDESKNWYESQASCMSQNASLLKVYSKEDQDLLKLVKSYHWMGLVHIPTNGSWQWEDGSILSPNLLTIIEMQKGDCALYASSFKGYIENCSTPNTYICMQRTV

[2] = biological target: T2, recombinant mouse NKG2D-Fc (mouse; human, UniProt O54709 90-232)
T2 construct: extracellular domain; also called mouse NKG2D-Fc fusion protein; Mouse NKG2D-Fc-biotin; not shown: human IgG1 Fc domain
T2 sequence (looked up): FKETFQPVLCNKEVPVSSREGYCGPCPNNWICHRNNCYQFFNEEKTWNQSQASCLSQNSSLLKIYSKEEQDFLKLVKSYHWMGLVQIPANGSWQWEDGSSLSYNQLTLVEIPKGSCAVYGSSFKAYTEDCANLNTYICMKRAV

[3] = biological target: T3, recombinant cynomolgus NKG2D-Fc (cynomolgus; human, UniProt P61252 73-216)
T3 construct: extracellular domain; also called cynomolgus NKG2D-Fc fusion protein; not shown: human IgG1 Fc domain
T3 sequence (looked up): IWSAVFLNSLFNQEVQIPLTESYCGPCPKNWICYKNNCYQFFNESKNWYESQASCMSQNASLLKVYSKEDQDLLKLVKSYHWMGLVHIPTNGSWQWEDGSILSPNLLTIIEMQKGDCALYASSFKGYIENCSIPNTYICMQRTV

Measured: binding result

B1: ADI-27705 (antibody, V domains shown)
VH: QVQLQQWGAGLLKPSETLSLTCAVYGGSFSGYYWSWIRQPPGKGLEWIGEIDHSGSTNYNPSLKSRVTISVDTSKNQFSLKLSSVTAADTAVYYCARARGPWSFDPWGQGTLVTVSS
VL: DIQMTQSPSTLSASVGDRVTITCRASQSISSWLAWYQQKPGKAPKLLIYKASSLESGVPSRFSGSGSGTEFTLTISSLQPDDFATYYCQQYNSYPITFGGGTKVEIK
binds: all assays above

B2: ADI-29403 (antibody, V domains shown)
VH: QVQLQQWGAGLLKPSETLSLTCAVYGGSFSGYYWSWIRQPPGKGLEWIGEIDHSGSTNYNPSLKSRVTISVDTSKNQFSLKLSSVTAADTAVYYCARARGPWSFDPWGQGTLVTVSS
VL: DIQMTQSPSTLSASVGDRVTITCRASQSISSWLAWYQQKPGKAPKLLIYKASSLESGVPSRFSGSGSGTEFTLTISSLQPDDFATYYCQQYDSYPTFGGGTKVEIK
binds: all assays above

B3: ADI-27743 (antibody, V domains shown)
VH: QVQLQQWGAGLLKPSETLSLTCAVYGGSFSGYYWSWIRQPPGKGLEWIGEIDHSGSTNYNPSLKSRVTISVDTSKNQFSLKLSSVTAADTAVYYCARARGPWSFDPWGQGTLVTVSS
VL: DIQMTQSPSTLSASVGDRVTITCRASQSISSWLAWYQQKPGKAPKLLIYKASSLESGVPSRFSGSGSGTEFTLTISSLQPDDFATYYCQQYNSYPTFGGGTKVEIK
binds: all assays above

B4: ADI-28226 (antibody, V domains shown)
VH: QVQLQQWGAGLLKPSETLSLTCAVYGGSFSGYYWSWIRQPPGKGLEWIGEIDHSGSTNYNPSLKSRVTISVDTSKNQFSLKLSSVTAADTAVYYCARARGPWSFDPWGQGTLVTVSS
VL: DIQMTQSPSTLSASVGDRVTITCRASQSISSWLAWYQQKPGKAPKLLIYKASSLESGVPSRFSGSGSGTEFTLTISSLQPDDFATYYCQQYGSFPITFGGGTKVEIK
notes: also called C26
binds: all assays above

B5: ADI-29425 (antibody, V domains shown)
VH: QVQLQQWGAGLLKPSETLSLTCAVYGGSFSGYYWSWIRQPPGKGLEWIGEIDHSGSTNYNPSLKSRVTISVDTSKNQFSLKLSSVTAADTAVYYCARARGPWSFDPWGQGTLVTVSS
VL: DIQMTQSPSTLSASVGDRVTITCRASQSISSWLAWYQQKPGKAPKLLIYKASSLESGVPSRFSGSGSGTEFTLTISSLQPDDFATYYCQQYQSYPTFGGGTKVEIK
binds: all assays above

B6: ADI-29419 (antibody, V domains shown)
VH: QVQLQQWGAGLLKPSETLSLTCAVYGGSFSGYYWSWIRQPPGKGLEWIGEIDHSGSTNYNPSLKSRVTISVDTSKNQFSLKLSSVTAADTAVYYCARARGPWSFDPWGQGTLVTVSS
VL: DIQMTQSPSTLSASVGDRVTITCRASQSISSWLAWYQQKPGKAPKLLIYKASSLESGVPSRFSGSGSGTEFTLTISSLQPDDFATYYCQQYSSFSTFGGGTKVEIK
binds: all assays above

B7: ADI-29447 (antibody, V domains shown)
VH: QVQLQQWGAGLLKPSETLSLTCAVYGGSFSGYYWSWIRQPPGKGLEWIGEIDHSGSTNYNPSLKSRVTISVDTSKNQFSLKLSSVTAADTAVYYCARARGPWSFDPWGQGTLVTVSS
VL: DIQMTQSPSTLSASVGDRVTITCRASQSISSWLAWYQQKPGKAPKLLIYKASSLESGVPSRFSGSGSGTEFTLTISSLQPDDFATYYCQQYDTFITFGGGTKVEIK
notes: also called F47
binds: all assays above

B8: ADI-29426 (antibody, V domains shown)
VH: QVQLQQWGAGLLKPSETLSLTCAVYGGSFSGYYWSWIRQPPGKGLEWIGEIDHSGSTNYNPSLKSRVTISVDTSKNQFSLKLSSVTAADTAVYYCARARGPWSFDPWGQGTLVTVSS
VL: DIQMTQSPSTLSASVGDRVTITCRASQSIGSWLAWYQQKPGKAPKLLIYKASSLESGVPSRFSGSGSGTEFTLTISSLQPDDFATYYCQQYHSFPTFGGGTKVEIK
binds: all assays above

B9: ADI-29404 (antibody, V domains shown)
VH: QVQLQQWGAGLLKPSETLSLTCAVYGGSFSGYYWSWIRQPPGKGLEWIGEIDHSGSTNYNPSLKSRVTISVDTSKNQFSLKLSSVTAADTAVYYCARARGPWSFDPWGQGTLVTVSS
VL: DIQMTQSPSTLSASVGDRVTITCRASQSISSWLAWYQQKPGKAPKLLIYKASSLESGVPSRFSGSGSGTEFTLTISSLQPDDFATYYCEQYDSYPTFGGGTKVEIK
notes: also called F04
binds: all assays above

B10: ADI-29405 (antibody, V domains shown)
VH: QVQLQQWGAGLLKPSETLSLTCAVYGGSFSGYYWSWIRQPPGKGLEWIGEIDHSGSTNYNPSLKSRVTISVDTSKNQFSLKLSSVTAADTAVYYCARARGPWSFDPWGQGTLVTVSS
VL: DIQMTQSPSTLSASVGDRVTITCRASQSISSWLAWYQQKPGKAPKLLIYKASSLESGVPSRFSGSGSGTEFTLTISSLQPDDFATYYCQQYGSFPTFGGGTKVEIK
binds: all assays above

B11: ADI-29401 (antibody, V domains shown)
VH: QVQLQQWGAGLLKPSETLSLTCAVYGGSFSGYYWSWIRQPPGKGLEWIGEIDHSGSTNYNPSLKSRVTISVDTSKNQFSLKLSSVTAADTAVYYCARARGPWSFDPWGQGTLVTVSS
VL: DIQMTQSPSTLSASVGDRVTITCRASQSIGSWLAWYQQKPGKAPKLLIYKASSLESGVPSRFSGSGSGTEFTLTISSLQPDDFATYYCQQYDIYPTFGGGTKVEIK
binds: all assays above

B12: ADI-29399 (antibody, V domains shown)
VH: QVQLQQWGAGLLKPSETLSLTCAVYGGSFSGYYWSWIRQPPGKGLEWIGEIDHSGSTNYNPSLKSRVTISVDTSKNQFSLKLSSVTAADTAVYYCARARGPWSFDPWGQGTLVTVSS
VL: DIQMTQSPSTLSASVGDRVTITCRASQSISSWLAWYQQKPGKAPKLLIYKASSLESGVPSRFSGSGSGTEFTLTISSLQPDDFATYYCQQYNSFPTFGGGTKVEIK
binds: all assays above

B13: ADI-29407 (antibody, V domains shown)
VH: QVQLQQWGAGLLKPSETLSLTCAVYGGSFSGYYWSWIRQPPGKGLEWIGEIDHSGSTNYNPSLKSRVTISVDTSKNQFSLKLSSVTAADTAVYYCARARGPWSFDPWGQGTLVTVSS
VL: DIQMTQSPSTLSASVGDRVTITCRASQSISSWLAWYQQKPGKAPKLLIYKASSLESGVPSRFSGSGSGTEFTLTISSLQPDDFATYYCQQYQSFPTFGGGTKVEIK
binds: all assays above

B14: ADI-27740 (antibody, V domains shown)
VH: QVQLQQWGAGLLKPSETLSLTCAVYGGSFSGYYWSWIRQPPGKGLEWIGEIDHSGSTNYNPSLKSRVTISVDTSKNQFSLKLSSVTAADTAVYYCARARGPWSFDPWGQGTLVTVSS
VL: DIQMTQSPSTLSASVGDRVTITCRASQSIGSWLAWYQQKPGKAPKLLIYKASSLESGVPSRFSGSGSGTEFTLTISSLQPDDFATYYCQQYHSFYTFGGGTKVEIK
notes: also called A40
binds: all assays above

B15: ADI-29424 (antibody, V domains shown)
VH: QVQLQQWGAGLLKPSETLSLTCAVYGGSFSGYYWSWIRQPPGKGLEWIGEIDHSGSTNYNPSLKSRVTISVDTSKNQFSLKLSSVTAADTAVYYCARARGPWSFDPWGQGTLVTVSS
VL: DIQMTQSPSTLSASVGDRVTITCRASQSISSWLAWYQQKPGKAPKLLIYKASSLESGVPSRFSGSGSGTEFTLTISSLQPDDFATYYCQQYDSFITFGGGTKVEIK
binds: all assays above

B16: ADI-29421 (antibody, V domains shown)
VH: QVQLQQWGAGLLKPSETLSLTCAVYGGSFSGYYWSWIRQPPGKGLEWIGEIDHSGSTNYNPSLKSRVTISVDTSKNQFSLKLSSVTAADTAVYYCARARGPWSFDPWGQGTLVTVSS
VL: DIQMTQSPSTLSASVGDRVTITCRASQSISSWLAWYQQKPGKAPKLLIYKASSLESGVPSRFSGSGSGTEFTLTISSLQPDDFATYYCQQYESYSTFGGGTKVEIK
binds: all assays above

B17: ADI-29429 (antibody, V domains shown)
VH: QVQLQQWGAGLLKPSETLSLTCAVYGGSFSGYYWSWIRQPPGKGLEWIGEIDHSGSTNYNPSLKSRVTISVDTSKNQFSLKLSSVTAADTAVYYCARARGPWSFDPWGQGTLVTVSS
VL: DIQMTQSPSTLSASVGDRVTITCRASQSIGSWLAWYQQKPGKAPKLLIYKASSLESGVPSRFSGSGSGTEFTLTISSLQPDDFATYYCQQYELYSYTFGGGTKVEIK
binds: all assays above

B18: ADI-27741 (antibody, V domains shown)
VH: QVQLQQWGAGLLKPSETLSLTCAVYGGSFSGYYWSWIRQPPGKGLEWIGEIDHSGSTNYNPSLKSRVTISVDTSKNQFSLKLSSVTAADTAVYYCARARGPWSFDPWGQGTLVTVSS
VL: DIQMTQSPSTLSASVGDRVTITCRASQSIGSWLAWYQQKPGKAPKLLIYKASSLESGVPSRFSGSGSGTEFTLTISSLQPDDFATYYCQQSNSYYTFGGGTKVEIK
binds: all assays above
